Experimental findings from US20240132578A1 are described below.

What all share (experiment): cell-based or functional assay
For test [1], the target named is HIV-1 Env of isolate APV-13 (Clade B) (HIV-1).
The target in test [2] is HIV-1 92RW020 envelope glycoprotein (Env), on pseudovirus (HIV-1 isolate 92RW020 (clade A)).
Test [3] addresses HIV-1 JR-CSF envelope glycoprotein (Env), wild type, on pseudovirus (HIV-1 isolate JR-CSF (clade B)) (UniProt P20871).
Test [4] has as its target HIV-1 ADA envelope glycoprotein (Env), on pseudovirus (HIV-1 isolate ADA).
For test [5], the target named is HIV-1 JR-CSF Env I326A (HIV-1 isolate JR-CSF) (UniProt P20871).
Test [6] has as its target HIV-1 Env of isolate MGRM-F1-010 (subtype F) (HIV-1).
The target in test [7] is HIV-1 Env of isolate MG RM-C-022 (HIV-1).
Test [8] has as its target HIV-1 envelope glycoprotein (Env) of isolate 92WR009 (HIV-1).
The target of test [9] is HIV-1 Env of pseudovirus 98CN009 (HIV-1).
In test [10] the target is HIV-1 Env of isolate MGRM-F1-013 (subtype F) (HIV-1).
In test [11] the target is HIV-1 Env of isolate MGRM-A-010 (pseudovirus) (HIV-1).
For test [12], the target named is HIV-1 Env of isolate MGRM-Chronic-B-023 (subtype B), on pseudovirus (HIV-1).
The target of test [13] is HIV-1 Env of isolate MG RM-D-008 (subtype D) (HIV-1).
Test [14] addresses HIV-1 Env of isolate MGRM-Chronic-B-012 (subtype B), on pseudovirus (HIV-1).
The target in test [15] is HIV-1 envelope glycoprotein (Env) of isolate MG RM-A-003 (HIV-1).
Test [16] addresses HIV-1 Env of isolate MG RM-C-023 (HIV-1).
Test [17] concerns the target HIV-1 Env of isolate MGRM-A-012 (pseudovirus) (HIV-1).
In test [18] the target is HIV-1 Env of isolate MGRM-F1-016 (subtype F) (HIV-1).
For test [19], the target named is HIV-1 envelope glycoprotein (Env) of isolate MG RM-A-005 (HIV-1).
Test [20] concerns the target HIV-1 Env of isolate MG RM-D-012 (subtype D) (HIV-1).
Test [21] concerns the target HIV-1 Env of isolate MGRM-C-024 (clade C pseudovirus) (HIV-1).
Test [22] addresses HIV-1 Env of isolate MG RM-D-028 (subtype D) (HIV-1).
Test [23] addresses HIV-1 Env of isolate MG RM-D-002 (subtype D) (HIV-1).
The target in test [24] is HIV-1 Env of isolate MGRM-Chronic-B-008 (subtype B), on pseudovirus (HIV-1).
The target of test [25] is HIV-1 Env of isolate MG RM-D-024 (subtype D) (HIV-1).
The target in test [26] is HIV-1 Env of isolate 93TH305 (subtype B), on pseudovirus (HIV-1).
Test [27] addresses HIV-1 Env of isolate MGRM-C-026 (clade C pseudovirus) (HIV-1).
The target in test [28] is HIV-1 envelope glycoprotein (Env) of isolate MG RM-A-009 (HIV-1).
The target in test [29] is HIV-1 Env of isolate 6535.3 (subtype B), on pseudovirus (HIV-1).
The target in test [30] is HIV-1 envelope glycoprotein (Env) of isolate 93UG077 (HIV-1).
In test [31] the target is HIV-1 Env of isolate APV_17 (subtype B), on pseudovirus (HIV-1).
The target in test [32] is HIV-1 Env of isolate MG RM-D-014 (subtype D) (HIV-1).
For test [33], the target named is HIV-1 Env of isolate MGRM-F1-012 (subtype F) (HIV-1).
Test [34] deals with HIV-1 Env of isolate MGRM-C-027 (clade C pseudovirus) (HIV-1).
Test [35] concerns the target HIV-1 Env of isolate MGRM-Chronic-B-018 (subtype B), on pseudovirus (HIV-1).
Test [36] concerns the target HIV-1 Env of isolate MG RM-D-003 (subtype D) (HIV-1).
Test [37] has as its target HIV-1 envelope glycoprotein (Env) of isolate 92WR021 (HIV-1).
The target of test [38] is HIV-1 Env of isolate MGRM-F1-004 (subtype F) (HIV-1).
The target in test [39] is HIV-1 JR-CSF Env G324A (HIV-1 isolate JR-CSF) (UniProt P20871).
In test [40] the target is aMLV envelope protein (negative control pseudovirus).
In test [41] the target is HIV-1 JR-CSF Env N276A (HIV-1 (isolate JR-CSF)) (UniProt P20871).
For test [42], the target named is HIV-1 JR-CSF Env N386A (HIV-1 isolate JR-CSF) (UniProt P20871).
Test [43] has as its target HIV-1 JR-CSF Env S387A (HIV-1 isolate JR-CSF) (UniProt P20871).

As for b12 (antibody), in test [1], the IC90 (neutralization of pseudovirus) is over 50 µg/mL.
Regarding 1443_C16 (PG16) (TCN-116) (antibody), the IC90 (neutralization of pseudovirus) in [1] is over 50 µg/mL. The figures for the IC50 (ug/ml), pseudovirus neutralization, TZM-bl assay in test [2], in test [3] and in test [4] were 0.09 µg/mL, 0.001 µg/mL and 0.004 µg/mL, respectively.
In turn, 5114_A19 (PGT-128) (antibody) registered a Fold IC50 increase relative to wild-type in [5] of 1.6 fold.
A word on the IC50: it is the concentration that gives 50% inhibition. On to PGV04 (antibody), for which the IC50 (µg/mL), pseudovirus neutralization in [6] is 0.184 µg/mL; in [7], 18.3 µg/mL; in test [10], 0.084 µg/mL; in [11], 0.205 µg/mL; in [13] it was 3.56 µg/mL; in test [16], 0.128 µg/mL. Moreover, the IC50 (µg/mL), pseudovirus neutralization in test [17] is 0.225 µg/mL; in [18], 0.268 µg/mL; in [20] it was 0.125 µg/mL; in test [22] it was 1.01 µg/mL; in test [23], 0.322 µg/mL; in [25] it was over 50 µg/mL. Also, the IC50 (µg/mL), pseudovirus neutralization in test [32] is 0.194 µg/mL; in [33], 0.25 µg/mL; in [36], over 50 µg/mL; in [38], 0.58 µg/mL. Besides, the IC50 in test [8] worked out at 0.108 µg/mL; in [15] it was 0.128 µg/mL; in test [19] it was 0.134 µg/mL; in [28], 0.033 µg/mL; in test [30] it was 0.083 µg/mL; in test [37], 0.038 µg/mL. The substance also had an IC50, pseudovirus neutralization in [9] of 0.0125 µg/mL. The IC50, single-round pseudovirus neutralization was 0.139 µg/mL in test [12]; over 50 µg/mL in [14]; 0.166 µg/mL in test [24]; 0.255 µg/mL in [26]; 0.757 µg/mL in test [29]; 0.309 µg/mL in test [31]. In [35], the IC50, single-round pseudovirus neutralization worked out at 0.164 µg/mL. The figures for the IC50 (µg/mL), single-round pseudovirus neutralization in test [21], in test [27] and in [34] were over 50 µg/mL, 0.303 µg/mL and 2.76 µg/mL, respectively.
In test [39], 4858_P08 (PGT-123) (antibody) showed a Fold IC50 increase relative to wild-type of 14.5 fold. Also, in test [40], the IC50, pseudovirus neutralization was over 10 µg/mL; the IC80 (pseudovirus neutralization) was over 10 µg/mL; the IC90 (pseudovirus neutralization) is over 10 µg/mL; the IC95 (pseudovirus neutralization) was over 10 µg/mL.
Regarding 5141_B17 (PGT-126) (antibody), in test [40], the Neutralization IC80 is over 10 µg/mL, the Neutralization IC90 was over 10 µg/mL, the Neutralization IC95 was over 10 µg/mL and the neutralization IC50 is over 10 µg/mL. In test [30], this substance displayed a Neutralization IC80 of 0.102 µg/mL, a Neutralization IC90 of 0.238 µg/mL, a Neutralization IC95 of 0.577 µg/mL and a neutralization IC50 of 0.0256 µg/mL.
In turn, 5136_H01 (PGT-131) (antibody) came in with a Fold IC50 increase relative to wild-type in test [41] of 0.8 fold.
Turning to 5147_N06 (PGT-130) (antibody), the Fold IC50 increase relative to wild-type in test [39] was over 50 fold; in test [42], 0.1 fold; in test [43], 0.7 fold.
As for 5145_B14 (PGT-127) (antibody), the Fold IC50 increase relative to wild-type in test [5] is 3.5 fold.
Consider 5343_B08 (PGT-135) (antibody), for which the Fold IC50 increase relative to wild-type stood at 0.6 fold in test [43] and 2.5 fold in [41].
Substance 5123_A06 (PGT-125) (antibody) returned a Fold IC50 increase relative to wild-type in test [42] of 0.8 fold.
1496_C09 (PG9) (TCN-109) (antibody): the IC50 (µg/mL), pseudovirus neutralization in test [6] worked out at 0.012 µg/mL; in test [7], 0.346 µg/mL; in test [10], 1.25 µg/mL; in test [11], 0.022 µg/mL; in test [13] it was 11.5 µg/mL; in test [16], 0.614 µg/mL. For the same substance, the IC50 (µg/mL), pseudovirus neutralization is 19.3 µg/mL in [17]; 0.518 µg/mL in test [18]; 16.2 µg/mL in [20]; 20.2 µg/mL in [22]; 0.021 µg/mL in test [23]; 0.038 µg/mL in [25]. The IC50 (µg/mL), pseudovirus neutralization in test [32] worked out at 0.023 µg/mL; in test [33], 0.023 µg/mL; in [36], 0.033 µg/mL; in [38], 0.175 µg/mL. The IC50 in test [8] is 0.05 µg/mL; in [15], 1.94 µg/mL; in test [19], 0.75 µg/mL; in [28], 0.023 µg/mL; in test [37], 0.027 µg/mL. Further, the IC50, pseudovirus neutralization in [9] was 0.371 µg/mL. Besides, the IC50, single-round pseudovirus neutralization was found to be 0.027 µg/mL in [12]; 0.2 µg/mL in test [14]; 8.78 µg/mL in test [24]; 8.12 µg/mL in test [26]; 1.05 µg/mL in test [29]; 34.8 µg/mL in [31]. In [35], this substance gave an IC50, single-round pseudovirus neutralization of 0.216 µg/mL. For the same substance, the IC50 (ug/ml), pseudovirus neutralization, TZM-bl assay in [2] was 0.1 µg/mL; in test [3], 0.006 µg/mL; in [4], 0.2 µg/mL. In addition, the IC50 (µg/mL), single-round pseudovirus neutralization in [21] worked out at 0.227 µg/mL; in test [27], 0.06 µg/mL; in test [34], 5.36 µg/mL.
